Data reported in paper PMC2528289.

Target: T1, FliI, flagellar ATPase, full-length protein released from GST-FliI by thrombin (S. typhimurium SJW1103), P26465
T1 chain: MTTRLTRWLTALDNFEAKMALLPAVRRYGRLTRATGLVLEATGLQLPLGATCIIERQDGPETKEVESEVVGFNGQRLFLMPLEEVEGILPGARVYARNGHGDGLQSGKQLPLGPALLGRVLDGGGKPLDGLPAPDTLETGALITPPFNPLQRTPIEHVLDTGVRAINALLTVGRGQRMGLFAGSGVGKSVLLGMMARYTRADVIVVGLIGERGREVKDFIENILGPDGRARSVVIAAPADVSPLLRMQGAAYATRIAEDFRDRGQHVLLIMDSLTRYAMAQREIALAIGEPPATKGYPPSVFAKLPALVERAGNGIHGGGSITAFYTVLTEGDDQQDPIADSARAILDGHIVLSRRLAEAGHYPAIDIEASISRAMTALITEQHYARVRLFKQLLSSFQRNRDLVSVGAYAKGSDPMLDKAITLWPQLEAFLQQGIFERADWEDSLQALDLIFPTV
Assay: negative-stain electron microscopy with single particle analysis
Conditions: remark: other sources report otherwise

B1: FliI, flagellar ATPase, full-length protein released from GST-FliI by thrombin, P26465 1-456 (enzyme)
chain: T1 chain
- stoichiometry N: 6
